Substrate in the series “purified protein”: O=[N+]([O-])c1ccc(O[C@@H]2O[C@H](CO)[C@@H](O)[C@H](O)[C@H]2O)cc1
Kind of series: purified protein. Particulars: recombinant free enzyme; pH and temperature of the kinetic run not given.

Substrate in series [1]: CC1(C)CC[C@]2(C(=O)O[C@@H]3O[C@H](CO)[C@@H](O)[C@H](O)[C@H]3O)CC[C@]3(C)C(=CC[C@@H]4[C@@]5(C)CC[C@H](O[C@@H]6O[C@H](C(=O)O)[C@@H](O)[C@H](O)[C@H]6O[C@@H]6O[C@H](CO)[C@@H](O)[C@H](O)[C@H]6O)C(C)(C)[C@@H]5CC[C@]43C)[C@@H]2C1
Kind of series: initial rate of ZR1 formation from Ro. It counts as biochemical, Paenibacillus lactis. Particulars: recombinant free enzyme; pH and temperature of the kinetic run not given; hydrolysis of the C-28 glucosyl ester.

Km and kcat data for one protein are collected here from paper PMC10995091, “Novel glycosidase from Paenibacillus lactis 154 hydrolyzing the 28-O-β-D-glucopyranosyl ester bond of oleanane-type saponins” (Applied Microbiology and Biotechnology, 2024).

B1: PlGH3 (Paenibacillus lactis; K755R/M754K) (protein)
chain: MRNHTLDTINKTEETVRYVQNPGGPTLGYSEESGVGIIEQDGLFFKDLSRDGKLDNYEDWRLTPEERAKDLASKMTVEQIAGLMLYSRHQSIPALSSGWFAGTYGGKTYEESGAKPWELTDEQIAFLTKDHVRHVLVTTVESPEVAARWNNKIQAFAEGTGLGIPANNSSDPRHASDSSSEFNAGAGGHISMWPETLGLAATFDPEITKKFGMIASREYRALGLATALSPQIDIATEPRWFRFNGTFGEDSKLAADMARAYVDGFQTSEGEREIADGWGYDSVNAMVKHWPGGGSGEAGRDAHYSCGKYAVYPGNNFDEHLVPFTEGAFKLDGKTGKASAVMPYYTISLGQDTVNGENVGNSYNSYLIRDLLRGKYGYDGVVCTDWMITADVSGPKDSFLSGKPWGVEDLTVGERHYKLQMAGVDQFGGNNEIEPVLEAYKIGVREHGEAYMRERFEQSAVRLLKNMFRLGLFENPYLDPQESATLVGNPEFMREGYEAQLKSIVMLKNKNGVLPLRAKSKVYIPKRFLPPGKDWFGNPTPESYDYPVNLEVVSKYFEVTDQPDEAEFGLVFITSPKSGTGYSQEDEERGGNGYVPISLQYKPYTAEHAREISLAGDEHGNEPRNRSYKGKTVIPHNTTDLNMVLETKEKMKGKPVIVSMLLCNPTVVSEFEAEVDAILANFGVQDQAMMEVLTGAAEPSGLLPMQMPAHMRTVEEQLEDVAHDMECHVDSEKHVYDFAFGMNWGGVIEDERTKRYRRS
notes: N-terminal His tag (pET-28a, BamHI/HindIII), E. coli BL21(DE3), Ni-NTA purified
For the protein B1, the Km was 22.76 ± 1.33 µM in the series “purified protein” and 79.59 ± 3.42 µM in series [1]. Besides, the kcat in the series “purified protein” was 46.18 s⁻¹; in series [1] it was 18.52 ± 0.28 s⁻¹.
